Target: leukocyte function antigen-1 (LFA-1), composed of CD11a and CD18, on human white blood cells (human) (UniProt P20701)
Assay: cell-based or functional assay

Sequence of leukocyte function antigen-1 (LFA-1), composed of CD11a and CD18, on human white blood cells (human) (P20701 26-1170, chain 1 of 2): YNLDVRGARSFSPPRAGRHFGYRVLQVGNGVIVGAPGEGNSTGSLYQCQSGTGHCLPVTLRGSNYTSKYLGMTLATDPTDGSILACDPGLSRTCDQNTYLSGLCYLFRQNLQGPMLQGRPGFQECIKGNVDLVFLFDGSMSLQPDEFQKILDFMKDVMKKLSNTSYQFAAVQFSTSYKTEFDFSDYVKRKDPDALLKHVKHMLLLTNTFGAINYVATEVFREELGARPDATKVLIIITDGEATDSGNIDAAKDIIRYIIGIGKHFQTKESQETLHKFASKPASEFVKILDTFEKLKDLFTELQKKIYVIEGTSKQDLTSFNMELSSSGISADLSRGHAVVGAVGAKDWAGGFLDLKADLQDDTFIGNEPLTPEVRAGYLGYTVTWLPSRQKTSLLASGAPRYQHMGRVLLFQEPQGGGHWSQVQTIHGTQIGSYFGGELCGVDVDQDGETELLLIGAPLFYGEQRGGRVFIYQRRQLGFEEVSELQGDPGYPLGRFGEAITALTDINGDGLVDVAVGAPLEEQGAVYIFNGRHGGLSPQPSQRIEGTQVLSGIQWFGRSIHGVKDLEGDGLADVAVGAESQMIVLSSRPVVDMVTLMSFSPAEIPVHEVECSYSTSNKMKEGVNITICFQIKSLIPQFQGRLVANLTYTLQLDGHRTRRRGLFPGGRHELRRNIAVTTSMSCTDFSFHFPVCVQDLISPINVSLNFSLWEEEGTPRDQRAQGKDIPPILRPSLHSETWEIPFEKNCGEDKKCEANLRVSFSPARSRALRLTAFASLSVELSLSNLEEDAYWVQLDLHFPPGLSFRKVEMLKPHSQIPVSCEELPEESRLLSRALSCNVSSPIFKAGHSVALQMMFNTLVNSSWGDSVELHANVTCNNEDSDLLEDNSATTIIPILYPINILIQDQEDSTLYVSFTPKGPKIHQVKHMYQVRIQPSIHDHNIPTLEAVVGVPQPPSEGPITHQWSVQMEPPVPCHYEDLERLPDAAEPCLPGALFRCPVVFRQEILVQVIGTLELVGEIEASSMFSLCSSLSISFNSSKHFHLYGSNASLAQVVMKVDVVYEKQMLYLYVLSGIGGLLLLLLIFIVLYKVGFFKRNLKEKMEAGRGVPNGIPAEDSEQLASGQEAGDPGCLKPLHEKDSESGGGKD
Sequence of leukocyte function antigen-1 (LFA-1), composed of CD11a and CD18, on human white blood cells (human) (P05107 23-769, chain 2 of 2, further chain): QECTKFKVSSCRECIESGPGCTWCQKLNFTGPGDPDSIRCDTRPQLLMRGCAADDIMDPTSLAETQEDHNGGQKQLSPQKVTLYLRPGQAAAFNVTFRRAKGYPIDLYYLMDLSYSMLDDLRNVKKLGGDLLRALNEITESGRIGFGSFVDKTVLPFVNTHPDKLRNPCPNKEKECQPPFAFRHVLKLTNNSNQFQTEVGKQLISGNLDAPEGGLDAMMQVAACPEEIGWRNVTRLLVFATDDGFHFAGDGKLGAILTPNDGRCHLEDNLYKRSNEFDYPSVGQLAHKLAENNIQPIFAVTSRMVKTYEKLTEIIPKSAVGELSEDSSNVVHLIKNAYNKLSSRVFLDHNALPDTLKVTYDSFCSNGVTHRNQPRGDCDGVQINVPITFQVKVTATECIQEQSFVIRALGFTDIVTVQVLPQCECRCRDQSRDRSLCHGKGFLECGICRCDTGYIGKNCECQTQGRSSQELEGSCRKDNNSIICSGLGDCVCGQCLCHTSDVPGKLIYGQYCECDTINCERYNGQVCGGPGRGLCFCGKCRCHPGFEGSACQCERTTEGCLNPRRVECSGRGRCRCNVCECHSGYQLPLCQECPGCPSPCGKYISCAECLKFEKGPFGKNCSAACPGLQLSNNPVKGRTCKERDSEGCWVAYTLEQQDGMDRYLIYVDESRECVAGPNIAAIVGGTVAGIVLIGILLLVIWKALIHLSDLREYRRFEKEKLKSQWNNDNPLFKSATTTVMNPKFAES

Efalizumab (RAPTIVA), anti-LFA-1 mAb (antibody)
IC50 of inhibition of proliferation of Jurkat cells (CellTiter Glo): 5000 µg/mL

From patent US20120263644A1
